From patent publication US20230131727A1 (Janssen / Centocor, published 2023)

What was measured:
[1] = biological target: T1, human PSMA (prostate-specific membrane antigen) on cells (human, UniProt Q04609 1-750); experiment: cell-based or functional assay
[2] = biological target: T1, human PSMA (prostate-specific membrane …); experiment: cell-based or functional assay; remark: listed apart in the source

T1 sequence (Q04609 whole entry): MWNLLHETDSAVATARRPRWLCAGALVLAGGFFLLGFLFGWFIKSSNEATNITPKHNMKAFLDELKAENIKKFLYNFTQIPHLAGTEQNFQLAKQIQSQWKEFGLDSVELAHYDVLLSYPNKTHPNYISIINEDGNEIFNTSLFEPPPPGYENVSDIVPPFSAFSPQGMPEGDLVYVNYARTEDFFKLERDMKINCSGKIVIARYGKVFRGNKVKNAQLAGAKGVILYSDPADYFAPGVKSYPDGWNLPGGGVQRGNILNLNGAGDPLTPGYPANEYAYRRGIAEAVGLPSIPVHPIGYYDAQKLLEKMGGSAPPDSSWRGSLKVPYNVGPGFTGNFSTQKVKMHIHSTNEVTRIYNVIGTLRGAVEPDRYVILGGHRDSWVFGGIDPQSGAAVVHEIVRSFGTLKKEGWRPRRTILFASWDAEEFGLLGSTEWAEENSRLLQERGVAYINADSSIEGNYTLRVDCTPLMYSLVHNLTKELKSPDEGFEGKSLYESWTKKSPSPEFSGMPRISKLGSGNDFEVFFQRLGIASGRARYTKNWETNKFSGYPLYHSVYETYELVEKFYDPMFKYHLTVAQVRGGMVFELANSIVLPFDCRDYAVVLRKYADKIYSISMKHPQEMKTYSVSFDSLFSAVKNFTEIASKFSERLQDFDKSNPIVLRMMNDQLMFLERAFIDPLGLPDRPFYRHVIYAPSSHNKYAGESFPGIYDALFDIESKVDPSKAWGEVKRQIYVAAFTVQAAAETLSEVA

Binder | C4-2B IC50 [1] [nM] | DX8951 IC50 (nM), 22RV1 cells [2] [nM] | MMAF IC25 (nM), 22RV1 cells [2] [nM]
PSMB1183 conjugated to maleimide-PEG4-vcPAB-MMAF (ADC) (antibody, human IgG1, lambda, V domains shown, reduced cysteines carry maleimide-PEG4-vcPAB-MMAF or N-ethyl maleimide; sites not given) VH: QVQLQESGPGLVKSSETLSLTCTVSGGSISSYYWNWIRQPAGKGLEWIGRIYSSGNTDYNPSLKSRVTMSVDTSKNQFSLKLISVTAADTAVYYCARGRGANVGLFDYWGQGTLVTVSS VL: QSALTQPPSVSGAPGQRVTISCTGSNSNIGANYDVHWYQHLPGTAPKLLIYGNINRPLGVPDRFSGSRSGTSASLAITGLQAEDEADYYCQSYDFSLSGSVFGVGTKLTVLG | 0.03 | – | –
PSMB1183 conjugated to MC-GGFG-DX8951 (ADC) (antibody, human IgG1, lambda, DAR 8, V domains shown, reduced cysteines carry MC-GGFG-DX8951; DAR 8.0) VH: QVQLQESGPGLVKSSETLSLTCTVSGGSISSYYWNWIRQPAGKGLEWIGRIYSSGNTDYNPSLKSRVTMSVDTSKNQFSLKLISVTAADTAVYYCARGRGANVGLFDYWGQGTLVTVSS VL: QSALTQPPSVSGAPGQRVTISCTGSNSNIGANYDVHWYQHLPGTAPKLLIYGNINRPLGVPDRFSGSRSGTSASLAITGLQAEDEADYYCQSYDFSLSGSVFGVGTKLTVLG | – | 0.7 | –
PSMB1156 conjugated to maleimide-PEG4-vcPAB-MMAF (ADC) (antibody, human IgG1, lambda, V domains shown, reduced cysteines carry maleimide-PEG4-vcPAB-MMAF or N-ethyl maleimide; sites not given) VH: EVQLVESGGGVVQPGRSLRLSCAASGFTFTSYGMHWVRQAPGKGLEWVAVISYDGSNKYYADSVKGRFTISRDNSKNTLYLQMNSLRAEDTAVYYCAREHYDSSGYYHGYYGMDVWGQGTTVTVSS VL: not shown | 0.04 | – | 0.9
PSMB1156 conjugated to MC-GGFG-DX8951 (ADC) (antibody, human IgG1, lambda, DAR 8, V domains shown, reduced cysteines carry MC-GGFG-DX8951; DAR 8.0) VH: EVQLVESGGGVVQPGRSLRLSCAASGFTFTSYGMHWVRQAPGKGLEWVAVISYDGSNKYYADSVKGRFTISRDNSKNTLYLQMNSLRAEDTAVYYCAREHYDSSGYYHGYYGMDVWGQGTTVTVSS VL: not shown | – | 1.4 | –
PSMB1154 conjugated to maleimide-PEG4-vcPAB-MMAF (ADC) (antibody, human IgG1, lambda, V domains shown, reduced cysteines carry maleimide-PEG4-vcPAB-MMAF or N-ethyl maleimide; sites not given) VH: EVQLVESGGGEVQPGRSLRLTCAVSGFTLSRYGMHWVRQAPGKGLEWAALISYDGSNRYYADSVKGRFTISRDNSKNTVFLQMNSLRAEDTAVYYCARERESSGWFEGYFDYWGQGTTVTVSS VL: QLVLTQPPSVSVAPGQTARITCGGNNIGSKSVHWYQQKPGQAPVLVVYDNSDRPSGIPERFSGSNSGNTATLTISRVEVGDEADYYCQVWDSSSDHVVFGGGTKLTVLG | 0.03 | – | 0.1
PSMB1154 conjugated to MC-GGFG-DX8951 (ADC) (antibody, human IgG1, lambda, DAR 8, V domains shown, reduced cysteines carry MC-GGFG-DX8951; DAR 8.0) VH: EVQLVESGGGEVQPGRSLRLTCAVSGFTLSRYGMHWVRQAPGKGLEWAALISYDGSNRYYADSVKGRFTISRDNSKNTVFLQMNSLRAEDTAVYYCARERESSGWFEGYFDYWGQGTTVTVSS VL: QLVLTQPPSVSVAPGQTARITCGGNNIGSKSVHWYQQKPGQAPVLVVYDNSDRPSGIPERFSGSNSGNTATLTISRVEVGDEADYYCQVWDSSSDHVVFGGGTKLTVLG | – | 0.8 | –
PSMB1157 conjugated to maleimide-PEG4-vcPAB-MMAF (ADC) (antibody, human IgG1, lambda, V domains shown, reduced cysteines carry maleimide-PEG4-vcPAB-MMAF or N-ethyl maleimide; sites not given) VH: EVQLVESGGGVVQPGRSLRLSCAASVRTFSGYGMHWVRQVPGKGLEWVAVISYDGSNRYYADSVKGRFTISRDNSKNTLYLQMNSLRTEDTAVYYCARDGNWGSLDLYFDLWGRGTLVTVSS VL: QSVLTQPPSVSGAPGQRVTISCTGSSSNIGADYDVHWYQQLPGTAPKLLIYVNNNRPSGVPDRFSGSRSGTSASLAITGLQADDEADYYCQSYDNTLSGVVFGGGTKLTVLG | 0.03 | – | 0.4
PSMB1157 conjugated to MC-GGFG-DX8951 (ADC) (antibody, human IgG1, lambda, DAR 8, V domains shown, reduced cysteines carry MC-GGFG-DX8951; DAR 8.0) VH: EVQLVESGGGVVQPGRSLRLSCAASVRTFSGYGMHWVRQVPGKGLEWVAVISYDGSNRYYADSVKGRFTISRDNSKNTLYLQMNSLRTEDTAVYYCARDGNWGSLDLYFDLWGRGTLVTVSS VL: QSVLTQPPSVSGAPGQRVTISCTGSSSNIGADYDVHWYQQLPGTAPKLLIYVNNNRPSGVPDRFSGSRSGTSASLAITGLQADDEADYYCQSYDNTLSGVVFGGGTKLTVLG | – | 2.2 | –
